According to publication PMC8602292, “Acyl carrier protein promotes MukBEF action in Escherichia coli chromosome organization-segregation” (Nature Communications, 2021):

Target: T1, MukB^K1114E (Escherichia coli, UniProt P22523 1-1486, K1114E)
T1 construct: E. coli MukB with K1114E; Mutant of the whole MukB-His as far as the text tells; source: E. coli FL01 (mukB 3xFLAG C3013I), purified (TALON, HiTrap Heparin, Superdex 200); not shown: His tag, C-terminal, kept
T1 sequence (looked up): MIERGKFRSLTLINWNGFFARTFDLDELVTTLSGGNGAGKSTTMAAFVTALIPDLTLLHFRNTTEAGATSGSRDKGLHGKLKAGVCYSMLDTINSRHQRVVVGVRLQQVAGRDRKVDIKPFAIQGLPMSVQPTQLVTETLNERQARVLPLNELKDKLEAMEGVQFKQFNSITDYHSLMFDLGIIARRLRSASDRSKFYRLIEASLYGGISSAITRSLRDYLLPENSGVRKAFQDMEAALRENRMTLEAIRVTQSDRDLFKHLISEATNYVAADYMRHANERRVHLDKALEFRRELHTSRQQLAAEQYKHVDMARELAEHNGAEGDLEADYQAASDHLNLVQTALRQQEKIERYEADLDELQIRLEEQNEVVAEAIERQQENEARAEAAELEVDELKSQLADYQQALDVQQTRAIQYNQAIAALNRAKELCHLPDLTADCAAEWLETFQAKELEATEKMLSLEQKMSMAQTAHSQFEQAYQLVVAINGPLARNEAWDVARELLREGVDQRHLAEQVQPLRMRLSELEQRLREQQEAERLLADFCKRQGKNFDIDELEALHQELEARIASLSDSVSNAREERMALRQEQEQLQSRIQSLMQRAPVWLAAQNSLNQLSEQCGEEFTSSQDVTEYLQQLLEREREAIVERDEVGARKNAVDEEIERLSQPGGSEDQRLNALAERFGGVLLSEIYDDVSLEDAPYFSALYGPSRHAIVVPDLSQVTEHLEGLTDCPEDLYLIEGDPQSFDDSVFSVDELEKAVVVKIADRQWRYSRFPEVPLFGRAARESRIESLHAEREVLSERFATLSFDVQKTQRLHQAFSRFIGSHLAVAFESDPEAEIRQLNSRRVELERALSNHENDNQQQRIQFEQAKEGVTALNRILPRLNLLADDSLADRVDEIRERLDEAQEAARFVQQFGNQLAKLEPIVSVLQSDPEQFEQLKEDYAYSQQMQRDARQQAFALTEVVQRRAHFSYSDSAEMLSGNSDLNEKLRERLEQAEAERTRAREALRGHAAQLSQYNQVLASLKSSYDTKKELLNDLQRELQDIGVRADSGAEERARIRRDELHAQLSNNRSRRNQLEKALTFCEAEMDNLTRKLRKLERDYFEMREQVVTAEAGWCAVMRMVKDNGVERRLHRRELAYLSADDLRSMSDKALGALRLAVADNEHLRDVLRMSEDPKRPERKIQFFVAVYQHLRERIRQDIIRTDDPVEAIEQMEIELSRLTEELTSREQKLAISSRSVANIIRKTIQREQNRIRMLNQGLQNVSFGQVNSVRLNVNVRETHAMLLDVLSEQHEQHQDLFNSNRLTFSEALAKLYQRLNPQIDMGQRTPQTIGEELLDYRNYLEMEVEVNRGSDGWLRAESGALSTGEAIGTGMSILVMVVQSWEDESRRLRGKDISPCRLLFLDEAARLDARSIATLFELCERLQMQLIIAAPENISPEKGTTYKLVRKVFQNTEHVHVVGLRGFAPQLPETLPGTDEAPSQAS
Experiment: native gel or EMSA; BN-PAGE; MukB or MukB^HN (0-4.5 μM) with MukF (1.5 μM), MukE (3 μM) and AcpP as indicated or none; 1 mM DTT, 1 mM MgCl2, 30 min at 22 °C; 3-12% native Bis-Tris gels; AMPPNP in some samples
Details: both partners purified

B1: MukF (His-MukF) (natural protein, Escherichia coli, UniProt P60293 1-440, looked up)
chain: MSEFSQTVPELVAWARKNDFSISLPVDRLSFLLAVATLNGERLDGEMSEGELVDAFRHVSDAFEQTSETIGVRANNAINDMVRQRLLNRFTSEQAEGNAIYRLTPLGIGITDYYIRQREFSTLRLSMQLSIVAGELKRAADAAEEGGDEFHWHRNVYAPLKYSVAEIFDSIDLTQRLMDEQQQQVKDDIAQLLNKDWRAAISSCELLLSETSGTLRELQDTLEAAGDKLQANLLRIQDATMTHDDLHFVDRLVFDLQSKLDRIISWGQQSIDLWIGYDRHVHKFIRTAIDMDKNRVFAQRLRQSVQTYFDEPWALTYANADRLLDMRDEEMALRDEEVTGELPEDLEYEEFNEIREQLAAIIEEQLAVYKTRQVPLDLGLVVREYLSQYPRARHFDVARIVIDQAVRLGVAQADFTGLPAKWQPINDYGAKVQAHVIDKY
notes: MukF, the kleisin of Escherichia coli MukBEF; The end of the tag is read from the printed name 'His-MukF'; also called kleisin MukF; source: E. coli C3013I (NEB), pET vector, purified (TALON, HiTrap DEAE FF, Superdex 200)
- binding result: binds

B2: MukE (MukE-His) (natural protein, Escherichia coli, UniProt P22524 1-234, looked up)
chain: MSSTNIEQVMPVKLAQALANPLFPALDSALRSGRHIGLDELDNHAFLMDFQEYLEEFYARYNVELIRAPEGFFYLRPRSTTLIPRSVLSELDMMVGKILCYLYLSPERLANEGIFTQQELYDELLTLADEAKLLKLVNNRSTGSDVDRQKLQEKVRSSLNRLRRLGMVWFMGHDSSKFRITESVFRFGADVRAGDDPREAQRRLIRDGEAMPIENHLQLNDETEENQPDSGEEE
notes: MukE, the KITE protein of Escherichia coli MukBEF; The end of the tag is read from the printed name 'MukE-His'; also called KITE protein MukE; source: E. coli C3013I (NEB), pET vector, purified (TALON, HiTrap DEAE FF, Superdex 200)
- binding result: binds
